Results on eight molecules are retold here after patent publication US20240218054A1 (MABLOC, published 2024).

B1: ADI-46596 (antibody, V domains shown)
VH: QVQLQESGPGLVKPSGTLSLTCAVSGGSISSNNWWSWVRQPPGKGLEWIGDTYHSGSPSYNPSLKSRVTISVDKSKNEFSLKLSSVTAADTAVYFCARYCSGATCYGSNGMDVWGQGTTVTVSS
VL: QSVLTQPPSMSAAPGQKVTISCSGSSSNIGNNYVSWYRQLPGTAPKLLIYDNDKRPSGIPDRFSGSKSGTTATLGITGLQTGDEAVYYCGTWDFRLSALFGGGTKLTVL
notes: full-length IgG; also called Antibody Number 35
B2: ADI-50205 (antibody, V domains shown)
VH: QVQLQESGGGVVQPGRSLRLSCAASGFTFSNFGMHWVRQAPGKGLEWVAIISYDRSNKDYADSVKGRFTISRDNSKNTLYLQMNSLRAEDTAVYYCAKDQCGGDCTADYWGQGTLVTVSS
VL: QSVLIQPASVSGSPGQSITISCTGTSSDVGGDKYVSWYQQHPGKAPKLVIYEVSNRPSGVSNRFSGSKSGNTASLTISGLQAEDEADYYCSSYTSSGTPVVCGGGTKVTVL
notes: full-length IgG; also called Antibody Number 36
B3: ADI-42188 (antibody, V domains shown)
VH: EVQLLESGPGLVKPSGTLSLTCAVSGGSISSGNWWSWVRQPPGKGLEWIGEIYHSGSANYNPSLKSRVTISVDKSKNQFSLKLTSVTAADTAVYYCARVVWEYSNAWCVDFWGQGTTVTVSS
VL: QSVLTQPPSVSAAPGQKVTISCSGSSSNIGNNYVSWYQQLPGTAPKLLIYDNNKRPSGIPDRFSGSKSGTSATLGITGLQTGDEADYYCETWDSSLGVVVFGGGTKLTVL
notes: full-length IgG; also called Antibody Number 32
B4: ADI-49186 (antibody, V domains shown)
VH: QVQLVESGGGVVQPGRSLRLSCAASGFTFSNSGMHWVRQAPGQGLEWVALISYTGETKYYSDSLKARFTISRDNSKNTLYLQMSSLSNEDTAVYYCARDYYASGDGYFDYWGQGTLVTVSS
VL: DIVLTQSPDSLAVSLGERATINCKSSQSVLFGSNQKSCLAWYQQKPGQSPKLLIHWASTRESGVPDRFSGSGSGTDFTLTISSLQAEDVAVYYCQQYYSTPRTFGQGTKVEIK
notes: full-length IgG; also called Antibody Number 38
B5: ADI-42809 (antibody, V domains shown)
VH: QVQLVESGPGLVKPSGTLSLTCAVSGDSISSTNWWSWVRQPPGKGLEYIGEIFHSGSTNYNPFLKSRVTISVDKSKNHFSLKLSSVTAADTAVYYCARGPLKSYWYFDLWGRGTLVTVSS
VL: QSVLTQPPSVSAAPGQKVTISCSGSSSNIGNNYVSWYQQLPGTAPKLLIYDNNKRPSGIPDRFSGSKSGTSATLGITGLQTGDEADYYCGTWDTSLSAGRVFGGGTKLTVL
notes: full-length IgG; also called Antibody Number 34
B6: ADI-42830 (antibody, V domains shown)
VH: EVQLLESGPGLVRPSGTLSLTCAVSGASISSNHWWTWVRQPPGKGLEWIGEIYHSGSPTYNPSLKSRVTISVDKSKNQFSLKLNSVTAADTAVYYCASTLWGGPLSVASDYWGQGTLVTVSS
VL: QSVLTQPPSVSAAPGQKVTISCSGSSSNIGNYYVSWYQQVPGTAPKLLIYDNNKRPSGIPDRFSGSKSGTSATLGITGLHTGDEAEYYCGTWDSSPSAGRVFGGGTKLTVL
notes: full-length IgG; also called Antibody Number 37
B7: ADI-42151 (antibody, V domains shown)
VH: QVQLQESGPGLVKPSGTLSLTCAVSGGSISSSNWWSWVRQPPGKGLEWIGEIYHSGSTTYNPSLKSRVTISVDKSKNQFSLKLSSVTAADTAVYYCARGPLKTYWYFDLWGRGTLVTVSS
VL: QSVVTQPPSVSAAPGQKVTISCSGSSSNIGNNYVSWYQQLPGTAPKLLIYDNNKRPSGIPDRFSGSKSGTSATLGITGLQTGDEADYYCGTWDTSLSAGRVFGGGTKLTVL
notes: full-length IgG; also called Antibody Number 51
B8: ADI-50026 (antibody, V domains shown)
VH: EVQLLESGGGVVQPGRSLRLSCAASGFTFTTYAMHWVRQAPGKGLEWVAAVSYDGNNKYYADSVKGRFTISRDNSRNTLYLQMNSLRAEDTAVYFCARNTYYDRSGLIAYWGQGALVTVSS
VL: DIQVTQSPSSLSASVGDRVTITCQASQDISNYLNWYQHKPGRAPKLLIYDASNLERGVPSRFSGSGSGTDFTFTISSLQPEDIATYYCQQYDNLSRLTFGGGTKLEIK
notes: full-length IgG; also called Antibody Number 33

The term Kd denotes the free concentration of one partner at which half of the binding sites on the other are occupied at equilibrium, for simple one-to-one binding.

T1 sequence (Q6DV88 286-678): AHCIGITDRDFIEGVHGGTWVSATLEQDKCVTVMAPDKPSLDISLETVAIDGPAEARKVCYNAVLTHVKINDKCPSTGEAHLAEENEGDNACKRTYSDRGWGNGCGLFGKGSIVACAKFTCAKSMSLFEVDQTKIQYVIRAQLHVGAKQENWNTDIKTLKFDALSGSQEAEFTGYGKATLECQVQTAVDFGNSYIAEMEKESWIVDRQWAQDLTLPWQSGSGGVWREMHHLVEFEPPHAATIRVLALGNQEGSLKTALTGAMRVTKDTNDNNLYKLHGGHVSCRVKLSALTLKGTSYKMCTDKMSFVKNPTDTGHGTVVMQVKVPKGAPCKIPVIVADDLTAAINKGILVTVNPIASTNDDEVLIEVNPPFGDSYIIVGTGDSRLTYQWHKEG

The assay addresses T1, recombinant YFV E protein (soluble E, sE; YFV Asibi strain) (Yellow fever virus, Asibi strain, UniProt Q6DV88 286-678).
T1 construct: also called YFV E antigen; YFV E monomer
As to the kind of experiment: BLI monovalent (IgG on tip).
As for B1, the Kd was 5.11 nM.

On to B2, for which the Kd turned out to be 18.8 nM.

For the molecule B3, the Kd worked out at 37.1 nM.

With B4, the Kd stood at 12.3 nM.

As to B5, the Kd stood at 3.78 nM.

Take B6: the Kd was found to be 3.48 nM.

Regarding B7, the Kd was 297 nM.

On to B8, for which the Kd is above 100 nM.
